Experimental data: patent US20230125550A1 (ARCELLX, published 2023)

B1: SEQ ID NO 709 (designed binder)
chain: MGSWIEFESRLWAIEDRLLALGGSEAELAAFEKEIAAFESELQAYKGKGNPEVEFLRLEAADIREDLQAYRHN
B2: SEQ ID NO 710 (designed binder)
chain: MGSWFEFEDRLDAIWDRLWALGGSEAELAAFEKEIAAFESELQAYKGKGNPEVEFLRMDAAMIRYILQAYRHN
B3: SEQ ID NO 711 (designed binder)
chain: MGSWEEFEDRLWAIEDRLWALGGSEAELAAFEKEIAAFESELQAYKGKGNPEVEILRYDAAYIREILQAYRHN
B4: SEQ ID NO 713 (designed binder)
chain: MGSWYEFWDRLEAIEDRLWALGGSEAELAAFEKEIAAFESELQAYKGKGNPEVEFLRYSAAEIRYQLQAYRHN
B5: SEQ ID NO 714 (designed binder)
chain: MGSWVEFESRLAAIEHRLWALGGSEAELAAFEKEIAAFESELQAYKGKGNPEVEELREYAAEIRDWLQAYRHN
B6: SEQ ID NO 715 (designed binder)
chain: MGSWWEFEHRLFAIEDRLWALGGSEAELAAFEKEIAAFESELQAYKGKGNPEVEFLRDYAAEIRDYLQAYRHN
B7: SEQ ID NO 716 (designed binder)
chain: MGSWYEFDSRLMAIEDRLWALGGSEAELAAFEKEIAAFESELQAYKGKGNPEVEYLRQEAAEIRMILQAYRHN
B8: SEQ ID NO 717 (designed binder)
chain: MGSWYEFEWRLMAIEDRLWALGGSEAELAAFEKEIAAFESELQAYKGKGNPEVEYLRHEAAEIRDVLQAYRHN
B9: SEQ ID NO 718 (designed binder)
chain: MGSWYEFYNRLDAIEDRLWALGGSEAELAAFEKEIAAFESELQAYKGKGNPEVEYLRQEAADIRGQLQAYRHN
B10: SEQ ID NO 719 (designed binder)
chain: MGSWWEFHDRLEAIEDRLWALGGSEAELAAFEKEIAAFESELQAYKGKGNPEVEYLRIEAADIRRQLQAYRHN
B11: SEQ ID NO 720 (designed binder)
chain: MGSWYEFWDRLEAIEERLWALGGSEAELAAFEKEIAAFESELQAYKGKGNPEVEYLRLEAADIRRILQAYRHN
B12: SEQ ID NO 721 (designed binder)
chain: MGSWYEFEERLWAIEERLYALGGSEAELAAFEKEIAAFESELQAYKGKGNPEVEYLRYEAAWIRDFLQAYRHN
B13: SEQ ID NO 722 (designed binder)
chain: MGSWYEFENRLEAIEERLWALGGSEAELAAFEKEIAAFESELQAYKGKGNPEVEMLREEAAFIRDWLQAYRHN
B14: SEQ ID NO 723 (designed binder)
chain: MGSWYEFEYRLEAIEDRLWALGGSEAELAAFEKEIAAFESELQAYKGKGNPEVEYLREEAAWIRVWLQAYRHN
B15: SEQ ID NO 724 (designed binder)
chain: MGSWYEFENRLGAIGDRLWALGGSEAELAAFEKEIAAFESELQAYKGKGNPEVEWLRDEAAYIRAVLQAYRHN
B16: SEQ ID NO 725 (designed binder)
chain: MGSWYEFEHRLDAIYDRLWALGGSEAELAAFEKEIAAFESELQAYKGKGNPEVEWLREEAAWIRLWLQAYRHN
B17: SEQ ID NO 726 (designed binder)
chain: MGSWYEFEWRLDAIYDRLGALGGSEAELAAFEKEIAAFESELQAYKGKGNPEVEWLREDAAEIRALLQAYRHN
B18: SEQ ID NO 727 (designed binder)
chain: MGSWVEFENRLEAIENRLWALGGSEAELAAFEKEIAAFESELQAYKGKGNPEVEWLREDAAQIRMMLQAYRHN
B19: SEQ ID NO 728 (designed binder)
chain: MGSWYEFEERLEAIEDRLWALGGSEAELAAFEKEIAAFESELQAYKGKGNPEVEWLREQAAFIRTMLQAYRHN
B20: SEQ ID NO 729 (designed binder)
chain: MGSWFEFEWRLEAIFDRLYALGGSEAELAAFEKEIAAFESELQAYKGKGNPEVEVLRAEAAEIRLRLQAYRHN
B21: SEQ ID NO 732 (designed binder)
chain: MGSWIEFWDRLEAIEDRLWALGGSEAELAAFEKEIAAFESELQAYKGKGNPEVEELRDEAAWIRDSLQAYRHN
B22: SEQ ID NO 733 (designed binder)
chain: MGSWFEFWDRLDAIEDRLYALGGSEAELAAFEKEIAAFESELQAYKGKGNPEVEELRDEAAWIRGTLQAYRHN
B23: SEQ ID NO 734 (designed binder)
chain: MGSWEEFTDRLWAIEDRLYALGGSEAELAAFEKEIAAFESELQAYKGKGNPEVEWLRDEAAFIRKSLQAYRHN
B24: SEQ ID NO 735 (designed binder)
chain: MGSWVEFVDRLEAIEDRLFALGGSEAELAAFEKEIAAFESELQAYKGKGNPEVEFLRDQAAYIRFMLQAYRHN
B25: SEQ ID NO 737 (designed binder)
chain: MGSWWEFEMRLEAIEDRLFALGGSEAELAAFEKEIAAFESELQAYKGKGNPEVESLRWEAAFIRDILQAYRHN
B26: SEQ ID NO 738 (designed binder)
chain: MGSWFEFEIRLEAIEDRLFALGGSEAELAAFEKEIAAFESELQAYKGKGNPEVEFLRDEAAEIRQVLQAYRHN
B27: SEQ ID NO 739 (designed binder)
chain: MGSWYEFYQRLEAIEDRLFALGGSEAELAAFEKEIAAFESELQAYKGKGNPEVEWLRDEAAEIRVVLQAYRHN
B28: SEQ ID NO 740 (designed binder)
chain: MGSWIEFEDRLEAIEDRLFALGGSEAELAAFEKEIAAFESELQAYKGKGNPEVEWLRQEAAEIRLMLQAYRHN
B29: SEQ ID NO 677 (designed binder)
chain: MGSWGEFWARLEAIWIRLDALGGSEAELAAFEKEIAAFESELQAYKGKGNPEVEWLREEAADIRRSLQAYRHN
B30: SEQ ID NO 691 (designed binder)
chain: MGSWYEFEDRLDAIQWRLWALGGSEAELAAFEKEIAAFESELQAYKGKGNPEVEFLRESAANIRQHLQAYRHN
B31: SEQ ID NO 692 (designed binder)
chain: MGSWSEFEYRLFAIENRLDALGGSEAELAAFEKEIAAFESELQAYKGKGNPEVEFLREEAAMIRQLLQAYRHN
B32: SEQ ID NO 697 (designed binder)
chain: MGSWVEFWHRLDAIKARLNALGGSEAELAAFEKEIAAFESELQAYKGKGNPEVEDLRWYAADFRLILQAYRHN

molecular target: T1, recombinant human CD123-Fc (human, UniProt P26951 19-305); test: phage ELISA, A450 target/A450 IgG1-Fc
T1 construct: not shown: Fc part of CD123-Fc
T1 sequence: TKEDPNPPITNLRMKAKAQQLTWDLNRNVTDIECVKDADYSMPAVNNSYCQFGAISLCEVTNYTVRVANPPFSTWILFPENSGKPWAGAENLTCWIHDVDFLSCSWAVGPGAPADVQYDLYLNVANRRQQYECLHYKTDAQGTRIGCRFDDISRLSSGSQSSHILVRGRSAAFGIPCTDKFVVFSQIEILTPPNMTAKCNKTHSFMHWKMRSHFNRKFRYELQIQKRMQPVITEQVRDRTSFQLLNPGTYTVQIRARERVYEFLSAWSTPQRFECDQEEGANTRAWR
Method in brief: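 Phage rescued with VCSM13 helper phage from phagemid colonies picked from panning output were tested on plates coated with goat anti-human IgG1-Fc antibody that carried either recombinant human target or IgG1-Fc. Bound phage were detected with HRP-conjugated anti-M13 antibody at 450 nm. The ELISA ratio is target absorbance over IgG1-Fc absorbance, averaged across all screened wells holding the clone.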

In order of rising ELISA_avg:
1. B26  3 ratio
2. B27  3 ratio
3. B7  3.2 ratio
4. B31  3.2 ratio
5. B8  3.4 ratio
6. B32  3.5 ratio
7. B5  3.7 ratio
8. B25  4 ratio
9. B3  4.1 ratio
10. B4  4.2 ratio
11. B21  4.5 ratio
12. B11  4.6 ratio
13. B15  4.8 ratio
14. B22  4.9 ratio
15. B24  4.9 ratio
16. B2  5.1 ratio
17. B12  5.4 ratio
18. B17  6 ratio
19. B19  6 ratio
20. B13  6.1 ratio
21. B14  6.2 ratio
22. B18  6.2 ratio
23. B16  6.3 ratio
24. B30  6.3 ratio
25. B10  6.4 ratio
26. B20  6.9 ratio
27. B6  7.6 ratio
28. B1  8.7 ratio
29. B23  8.9 ratio
30. B9  11.3 ratio
31. B29  15 ratio
32. B28  21.8 ratio
